Laboratory results as given in patent US20260242735A1.

Tests used:
Assay in all cases: flow cytometry on transfected cells, IgG
human CD33 H45Y (human) = human CD33 H45Y (human) (UniProt P20138)
human CD33 I47T (human) = human CD33 I47T (human) (UniProt P20138)
human CD33 P48H (human) = human CD33 P48H (human) (UniProt P20138)
human CD33 Y50Q (human) = human CD33 Y50Q (human) (UniProt P20138)
human CD33 P46R (human) = human CD33 P46R (human) (UniProt P20138)
human CD33 Y49Q (human) = human CD33 Y49Q (human) (UniProt P20138)
human CD33 P48Y (human) = human CD33 P48Y (human) (UniProt P20138)
Chain of human CD33 P48Y (human) (P20138 18-364 P48Y limits assumed): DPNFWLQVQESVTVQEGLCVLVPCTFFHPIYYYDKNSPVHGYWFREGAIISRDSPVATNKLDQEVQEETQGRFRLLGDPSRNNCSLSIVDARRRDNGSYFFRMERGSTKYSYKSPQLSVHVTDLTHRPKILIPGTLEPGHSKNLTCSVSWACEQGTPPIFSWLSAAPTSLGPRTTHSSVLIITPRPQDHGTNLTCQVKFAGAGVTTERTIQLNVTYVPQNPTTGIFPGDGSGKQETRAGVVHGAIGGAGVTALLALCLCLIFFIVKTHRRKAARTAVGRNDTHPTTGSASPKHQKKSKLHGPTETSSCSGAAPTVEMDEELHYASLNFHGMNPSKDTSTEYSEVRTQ

human CD33 P46H (human) = human CD33 P46H (human) (UniProt P20138)
Chain of human CD33 P46H (human) (P20138 18-364 P46H limits assumed): as the sequence (P20138 18-364 P48Y limits assumed) above, with P29H, Y31P counted along it

human CD33 F44I (human) = human CD33 F44I (human) (UniProt P20138)
human CD33 Y49I (human) = human CD33 Y49I (human) (UniProt P20138)
Chain of human CD33 Y49I (human) (P20138 18-364 Y49I limits assumed): as the sequence (P20138 18-364 P48Y limits assumed) above, with Y31P, Y32I counted along it

human CD33 Y49P (human) = human CD33 Y49P (human) (UniProt P20138)
human CD33 I47N (human) = human CD33 I47N (human) (UniProt P20138)
human CD33 T42P (human) = human CD33 T42P (human) (UniProt P20138)
human CD33 I47P (human) = human CD33 I47P (human) (UniProt P20138)
human CD33 F44L (human) = human CD33 F44L (human) (UniProt P20138)
Chain of human CD33 F44L (human) (P20138 18-364 F44L limits assumed): as the sequence (P20138 18-364 P48Y limits assumed) above, with F27L, Y31P counted along it

human CD33 P46L (human) = human CD33 P46L (human) (UniProt P20138)
Chain of human CD33 P46L (human) (P20138 18-364 P46L limits assumed): as the sequence (P20138 18-364 P48Y limits assumed) above, with P29L, Y31P counted along it

human CD33 Y50I (human) = human CD33 Y50I (human) (UniProt P20138)
human CD33 F44S (human) = human CD33 F44S (human) (UniProt P20138)
Chain of human CD33 F44S (human) (P20138 18-364 F44S limits assumed): as the sequence (P20138 18-364 P48Y limits assumed) above, with F27S, Y31P counted along it

human CD33 Y50V (human) = human CD33 Y50V (human) (UniProt P20138)
human CD33 I47V (human) = human CD33 I47V (human) (UniProt P20138)
human CD33 P48T (human) = human CD33 P48T (human) (UniProt P20138)
human CD33 P46F (human) = human CD33 P46F (human) (UniProt P20138)
human CD33 Y49D (human) = human CD33 Y49D (human) (UniProt P20138)
human CD33 F44H (human) = human CD33 F44H (human) (UniProt P20138)
human CD33 Y49T (human) = human CD33 Y49T (human) (UniProt P20138)
human CD33 Y50N (human) = human CD33 Y50N (human) (UniProt P20138)
human CD33 P48V (human) = human CD33 P48V (human) (UniProt P20138)
Chain of human CD33 P48V (human) (P20138 18-364 P48V limits assumed): as the sequence (P20138 18-364 P48Y limits assumed) above, with Y31V counted along it

human CD33 Y49C (human) = human CD33 Y49C (human) (UniProt P20138)
human CD33 F44V (human) = human CD33 F44V (human) (UniProt P20138)
Chain of human CD33 F44V (human) (P20138 18-364 F44V limits assumed): as the sequence (P20138 18-364 P48Y limits assumed) above, with F27V, Y31P counted along it

human CD33 F44Q (human) = human CD33 F44Q (human) (UniProt P20138)
human CD33 Y50S (human) = human CD33 Y50S (human) (UniProt P20138)
human CD33 I47R (human) = human CD33 I47R (human) (UniProt P20138)
human CD33 F44P (human) = human CD33 F44P (human) (UniProt P20138)
Chain of human CD33 F44P (human) (P20138 18-364 F44P limits assumed): as the sequence (P20138 18-364 P48Y limits assumed) above, with F27P, Y31P counted along it

human CD33 P46Y (human) = human CD33 P46Y (human) (UniProt P20138)
human CD33 Y50G (human) = human CD33 Y50G (human) (UniProt P20138)
human CD33 P48F (human) = human CD33 P48F (human) (UniProt P20138)
human CD33 I47L (human) = human CD33 I47L (human) (UniProt P20138)
human CD33 Y50P (human) = human CD33 Y50P (human) (UniProt P20138)
human CD33 Y50L (human) = human CD33 Y50L (human) (UniProt P20138)
human CD33 Y50H (human) = human CD33 Y50H (human) (UniProt P20138)
Chain of human CD33 Y50H (human) (P20138 18-364 Y50H limits assumed): as the sequence (P20138 18-364 P48Y limits assumed) above, with Y31P, Y33H counted along it

human CD33 Y49L (human) = human CD33 Y49L (human) (UniProt P20138)
human CD33 T42N (human) = human CD33 T42N (human) (UniProt P20138)
human CD33 F43L (human) = human CD33 F43L (human) (UniProt P20138)
human CD33 Y49S (human) = human CD33 Y49S (human) (UniProt P20138)
human CD33 I47S (human) = human CD33 I47S (human) (UniProt P20138)
Chain of human CD33 I47S (human) (P20138 18-364 I47S limits assumed): as the sequence (P20138 18-364 P48Y limits assumed) above, with I30S, Y31P counted along it

human CD33 I47W (human) = human CD33 I47W (human) (UniProt P20138)
human CD33 P46I (human) = human CD33 P46I (human) (UniProt P20138)
Chain of human CD33 P46I (human) (P20138 18-364 P46I limits assumed): as the sequence (P20138 18-364 P48Y limits assumed) above, with P29I, Y31P counted along it

Chain of human CD33 H45Y (human) (P20138 18-364 H45Y limits assumed): as the sequence (P20138 18-364 P48Y limits assumed) above, with H28Y, Y31P counted along it
Chain of human CD33 P46R (human) (P20138 18-364 P46R limits assumed): as the sequence (P20138 18-364 P48Y limits assumed) above, with P29R, Y31P counted along it

## Refmab #7 (WM53) (antibody)
Human CD33 H45Y (human)
  Mean % WT Binding: 75.7 % WT binding
Human CD33 I47T (human)
  Mean % WT Binding: 32.7 % WT binding
Human CD33 P48H (human)
  Mean % WT Binding: 1.6 % WT binding
Human CD33 Y50Q (human)
  Mean % WT Binding: 7.2 % WT binding
Human CD33 P46R (human)
  Mean % WT Binding: 33.4 % WT binding
Human CD33 Y49Q (human)
  Mean % WT Binding: 0.7 % WT binding
Human CD33 P48Y (human)
  Mean % WT Binding: 0.5 % WT binding
Human CD33 P46H (human)
  Mean % WT Binding: 94.3 % WT binding
Human CD33 F44I (human)
  Mean % WT Binding: 46.1 % WT binding
Human CD33 Y49I (human)
  Mean % WT Binding: 0.2 % WT binding
Human CD33 Y49P (human)
  Mean % WT Binding: 11.7 % WT binding
Human CD33 I47N (human)
  Mean % WT Binding: 4.7 % WT binding
Human CD33 T42P (human)
  Mean % WT Binding: 15.9 % WT binding
Human CD33 I47P (human)
  Mean % WT Binding: 1.2 % WT binding
Human CD33 F44L (human)
  Mean % WT Binding: 99.6 % WT binding
Human CD33 P46L (human)
  Mean % WT Binding: 66.8 % WT binding
Human CD33 Y50I (human)
  Mean % WT Binding: 5.1 % WT binding
Human CD33 F44S (human)
  Mean % WT Binding: 31.8 % WT binding
Human CD33 Y50V (human)
  Mean % WT Binding: 3.9 % WT binding
Human CD33 I47V (human)
  Mean % WT Binding: 97.4 % WT binding
Human CD33 P48T (human)
  Mean % WT Binding: 1.6 % WT binding
Human CD33 P46F (human)
  Mean % WT Binding: 23 % WT binding
Human CD33 Y49D (human)
  Mean % WT Binding: 3.9 % WT binding
Human CD33 F44H (human)
  Mean % WT Binding: 82.4 % WT binding
Human CD33 Y49T (human)
  Mean % WT Binding: 0.1 % WT binding
Human CD33 Y50N (human)
  Mean % WT Binding: 4.7 % WT binding
Human CD33 P48V (human)
  Mean % WT Binding: 0.9 % WT binding
Human CD33 Y49C (human)
  Mean % WT Binding: 0.6 % WT binding
Human CD33 F44V (human)
  Mean % WT Binding: 36.1 % WT binding
Human CD33 F44Q (human)
  Mean % WT Binding: 74.8 % WT binding
Human CD33 Y50S (human)
  Mean % WT Binding: 7.7 % WT binding
Human CD33 I47R (human)
  Mean % WT Binding: 2 % WT binding
Human CD33 F44P (human)
  Mean % WT Binding: 21.8 % WT binding
Human CD33 P46Y (human)
  Mean % WT Binding: 8.6 % WT binding
Human CD33 Y50G (human)
  Mean % WT Binding: 17.2 % WT binding
Human CD33 P48F (human)
  Mean % WT Binding: 0.2 % WT binding
Human CD33 I47L (human)
  Mean % WT Binding: 37.4 % WT binding
Human CD33 Y50P (human)
  Mean % WT Binding: 0.4 % WT binding
Human CD33 Y50L (human)
  Mean % WT Binding: 4.7 % WT binding
Human CD33 Y50H (human)
  Mean % WT Binding: 18 % WT binding
Human CD33 Y49L (human)
  Mean % WT Binding: 1.6 % WT binding
Human CD33 T42N (human)
  Mean % WT Binding: 95.4 % WT binding
Human CD33 F43L (human)
  Mean % WT Binding: 94 % WT binding
Human CD33 Y49S (human)
  Mean % WT Binding: 3.6 % WT binding
Human CD33 I47S (human)
  Mean % WT Binding: 33.6 % WT binding
Human CD33 I47W (human)
  Mean % WT Binding: 45.4 % WT binding
Human CD33 P46I (human)
  Mean % WT Binding: 107 % WT binding
